Test results taken from the Human Domainome abundance scans (Beltran et al. 2025).
± gives the uncertainty stated by the source.

Experiment: abundance fitness (aPCA) (normalised: wild type 0, dead -1); higher = more abundant; growth selection in yeast, the domain comes from the species named
Conditions: Homo sapiens

| Substance | abundance fitness |
| --- | --- |
| SAFB-like transcription modulator G60I, Q9NWH9 | -0.792 ± 0.08 |
| SAFB-like transcription modulator G60K, Q9NWH9 | -0.162 ± 0.052 |
| SAFB-like transcription modulator G60L, Q9NWH9 | -0.396 ± 0.036 |
| SAFB-like transcription modulator G60M, Q9NWH9 | -0.238 ± 0.038 |
| SAFB-like transcription modulator G60N, Q9NWH9 | -0.108 ± 0.04 |
| SAFB-like transcription modulator G60Q, Q9NWH9 | -0.181 ± 0.042 |
| SAFB-like transcription modulator G60R, Q9NWH9 | -0.238 ± 0.033 |
| SAFB-like transcription modulator G60S, Q9NWH9 | -0.308 ± 0.041 |
| SAFB-like transcription modulator G60V, Q9NWH9 | -0.515 ± 0.04 |
| SAFB-like transcription modulator G60W, Q9NWH9 | -0.658 ± 0.047 |
| SAFB-like transcription modulator G60Y, Q9NWH9 | -0.591 ± 0.07 |
| SAFB-like transcription modulator G61A, Q9NWH9 | -0.158 ± 0.049 |
| SAFB-like transcription modulator G61C, Q9NWH9 | -0.164 ± 0.064 |
| SAFB-like transcription modulator G61D, Q9NWH9 | -0.229 ± 0.056 |
| SAFB-like transcription modulator G61E, Q9NWH9 | -0.303 ± 0.064 |
| SAFB-like transcription modulator G61F, Q9NWH9 | -0.474 ± 0.072 |
| SAFB-like transcription modulator G61H, Q9NWH9 | -0.16 ± 0.049 |
| SAFB-like transcription modulator G61I, Q9NWH9 | -0.415 ± 0.098 |
| SAFB-like transcription modulator G61K, Q9NWH9 | -0.18 ± 0.06 |
| SAFB-like transcription modulator G61L, Q9NWH9 | -0.098 ± 0.043 |
| SAFB-like transcription modulator G61M, Q9NWH9 | -0.135 ± 0.06 |
| SAFB-like transcription modulator G61N, Q9NWH9 | -0.208 ± 0.083 |
| SAFB-like transcription modulator G61P, Q9NWH9 | -0.31 ± 0.062 |
| SAFB-like transcription modulator G61Q, Q9NWH9 | -0.141 ± 0.066 |
| SAFB-like transcription modulator G61R, Q9NWH9 | -0.227 ± 0.042 |

| Substance | abundance fitness |
| --- | --- |
| SAFB-like transcription modulator G61S, Q9NWH9 | -0.23 ± 0.049 |
| SAFB-like transcription modulator G61T, Q9NWH9 | -0.296 ± 0.046 |
| SAFB-like transcription modulator G61V, Q9NWH9 | -0.39 ± 0.046 |
| SAFB-like transcription modulator G61W, Q9NWH9 | -0.537 ± 0.059 |
| SAFB-like transcription modulator G61Y, Q9NWH9 | -0.259 ± 0.082 |
| SAFB-like transcription modulator I22A, Q9NWH9 | -0.65 ± 0.078 |
| SAFB-like transcription modulator I22C, Q9NWH9 | -0.347 ± 0.05 |
| SAFB-like transcription modulator I22D, Q9NWH9 | -0.464 ± 0.087 |
| SAFB-like transcription modulator I22E, Q9NWH9 | -0.57 ± 0.11 |
| SAFB-like transcription modulator I22F, Q9NWH9 | -0.372 ± 0.087 |
| SAFB-like transcription modulator I22G, Q9NWH9 | -0.562 ± 0.044 |
| SAFB-like transcription modulator I22H, Q9NWH9 | -0.471 ± 0.12 |
| SAFB-like transcription modulator I22K, Q9NWH9 | -0.576 ± 0.072 |
| SAFB-like transcription modulator I22L, Q9NWH9 | -0.115 ± 0.061 |
| SAFB-like transcription modulator I22N, Q9NWH9 | -0.659 ± 0.11 |
| SAFB-like transcription modulator I22P, Q9NWH9 | -0.736 ± 0.089 |
| SAFB-like transcription modulator I22Q, Q9NWH9 | -0.606 ± 0.093 |
| SAFB-like transcription modulator I22R, Q9NWH9 | -0.743 ± 0.048 |
| SAFB-like transcription modulator I22S, Q9NWH9 | -0.521 ± 0.065 |
| SAFB-like transcription modulator I22T, Q9NWH9 | -0.542 ± 0.1 |
| SAFB-like transcription modulator I22V, Q9NWH9 | -0.132 ± 0.037 |
| SAFB-like transcription modulator I22W, Q9NWH9 | -0.94 ± 0.085 |
| SAFB-like transcription modulator I22Y, Q9NWH9 | -0.531 ± 0.085 |
| SAFB-like transcription modulator I28A, Q9NWH9 | 0.055 ± 0.1 |
| SAFB-like transcription modulator I28E, Q9NWH9 | -0.1 ± 0.11 |

| Substance | abundance fitness |
| --- | --- |
| SAFB-like transcription modulator I28F, Q9NWH9 | -0.417 ± 0.17 |
| SAFB-like transcription modulator I28G, Q9NWH9 | -0.106 ± 0.064 |
| SAFB-like transcription modulator I28K, Q9NWH9 | -0.22 ± 0.22 |
| SAFB-like transcription modulator I28N, Q9NWH9 | -0.59 ± 0.23 |
| SAFB-like transcription modulator I28P, Q9NWH9 | 0.193 ± 0.13 |
| SAFB-like transcription modulator I28Q, Q9NWH9 | -0.36 ± 0.13 |
| SAFB-like transcription modulator I28R, Q9NWH9 | -0.018 ± 0.057 |
| SAFB-like transcription modulator I28S, Q9NWH9 | -0.411 ± 0.12 |
| SAFB-like transcription modulator I28T, Q9NWH9 | -0.129 ± 0.12 |
| SAFB-like transcription modulator I28V, Q9NWH9 | 0.01 ± 0.069 |
| SAFB-like transcription modulator I28W, Q9NWH9 | -0.365 ± 0.11 |
| SAFB-like transcription modulator I28Y, Q9NWH9 | -0.306 ± 0.15 |
| SAFB-like transcription modulator I41A, Q9NWH9 | 0.075 ± 0.075 |
| SAFB-like transcription modulator I41C, Q9NWH9 | -0.08 ± 0.15 |
| SAFB-like transcription modulator I41D, Q9NWH9 | -0.457 ± 0.11 |
| SAFB-like transcription modulator I41E, Q9NWH9 | -0.139 ± 0.083 |
| SAFB-like transcription modulator I41F, Q9NWH9 | 0.197 ± 0.079 |
| SAFB-like transcription modulator I41G, Q9NWH9 | -0.158 ± 0.064 |
| SAFB-like transcription modulator I41H, Q9NWH9 | 0.157 ± 0.093 |
| SAFB-like transcription modulator I41K, Q9NWH9 | -0.336 ± 0.11 |
| SAFB-like transcription modulator I41L, Q9NWH9 | -0.087 ± 0.065 |
| SAFB-like transcription modulator I41M, Q9NWH9 | 0.08 ± 0.075 |
| SAFB-like transcription modulator I41N, Q9NWH9 | -0.68 ± 0.2 |
| SAFB-like transcription modulator I41Q, Q9NWH9 | -0.022 ± 0.082 |
